From patent US20180355035A1 (STCUBE, published 2018)

What was measured:
[1] = molecular target: T1, human BTN1A1 extracellular domain tagged with human IgG1 Fc (human, UniProt Q13410 27-242); assay: SPR (Biacore), STC810 captured on Protein A chip, BTN1A1-ECD-Fc injected; column headed 'kd (1/Ms)'
T1 construct: also called hBTN1A1-Fc; BTN1A1-Fc; not shown: human IgG1 Fc region
T1 chain: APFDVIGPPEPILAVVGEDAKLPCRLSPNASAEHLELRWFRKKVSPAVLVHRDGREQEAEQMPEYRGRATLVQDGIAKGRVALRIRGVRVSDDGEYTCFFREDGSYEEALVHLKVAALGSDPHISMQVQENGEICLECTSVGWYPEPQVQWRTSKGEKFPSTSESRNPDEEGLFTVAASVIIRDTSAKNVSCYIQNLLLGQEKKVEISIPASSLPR
Procedure: (§1) FIG. 11—Surface plasmon resonance analysis of BTN1A1-Fc and BTN1A1-His binding to immobilized STC810 MAb. FIG. 11A: Sensorgrams showing real-time binding of soluble BTN1A1-Fc protein (2-64 nM with 2-fold dilution) to STC810 immobilized on a Protein A-CM5 chip. Flow cells without any immobilized protein were used as the controls for non-specific binding and were subtracted from the presented data. FIG. 11B: Sensorgrams showing real-time binding of soluble BTN1A1-His protein (2-64 nM with 4-fold dilution) to STC810 immobilized on a Protein A-CM5 chip.
(§2) In a Biacore assay, the binding affinity between BTN1A1 and monoclonal anti-BTN1A1 antibody STC810 was measured by Surface Plasmon Resonance. Sensorgram and saturation curve of the titration of antibody by BTN1A1-ECD tagged with 6×His or human IgG1 Fc. The protein A chip (BIAcore) was coated with antibody with 600 response units (RU) and the BTN1A1 ECD was injected in the microfluidic channel. The KD values were obtained using the fitting tool of the BIAevaluation software (BIAcore). FIG. 11 provides sensorgrams showing real-time binding of soluble BTN1A1-Fc protein (2-64 nM with 2-fold dilution; FIG. 11A) or soluble BTN1A1-His protein (2-64 nM with 4-fold dilution; FIG. 11B) to STC810 immobilized on a Protein A-CM5 chip. […]

[2] = molecular target: T2, mBTNA1A-FC (Mus musculus, UniProt Q62556); assay: dot blot (layout FIG. 9B), lanes 5-8 mBTNA1A-FC = mouse BTN1A1-Fc, untreated and PNGase F treated
T2 construct: antigen of lanes 5-8 of the dot blot, used untreated and PNGase F treated; the sheet prints mBTNA1A-FC; also called mouse BTN1A1-Fc; mouse BTN1A1 tagged with human IgG1 Fc region
T2 sequence (Fc fusion chain, looked up): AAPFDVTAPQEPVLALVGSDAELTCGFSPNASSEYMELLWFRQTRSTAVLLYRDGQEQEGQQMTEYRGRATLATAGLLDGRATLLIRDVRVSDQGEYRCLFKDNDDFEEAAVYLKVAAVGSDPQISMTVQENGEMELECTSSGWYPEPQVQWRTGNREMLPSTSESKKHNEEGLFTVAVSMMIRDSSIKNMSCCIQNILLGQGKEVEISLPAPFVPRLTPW
Procedure: FIG. 9—Dot blot analysis of mouse anti-human BTN1A1 antibodies. […] Antigen BTN1A1-ECD tagged with 6×His was treated with PNGase F to remove N-glycosylation. Polyclonal antibodies were used for positive control. To test the species specificity of BTN1A1, human and mouse BTN1A1 tagged with human IgG1 Fc region was used (lane 1-4 with human BTN1A1-Fc and lane 5-8 with mouse BTN1A1-Fc). The term “ECD” stands for extracellular domain.
The glyco-specificity of monoclonal anti-BTN1A1 antibodies was characterized by dot blot analysis. Each anti-BTN1A1 mAb (0.5 μg/well loaded) was tested for binding to glycosylated BTN1A1 (PNGaseF “−”) or deglycosylated BTN1A1 (PNGaseF “+”). Non-specific antibody controls (“IgG,” 0.25 μg/well loaded) was also included in the assay. As shown in FIGS. 9A-9B, both glycosylated BTN1A1 protein and non-glycosylated BTN1A1 (BTN1A1 protein treated with PNGase F) were coated on the solid phase and tested for mAbs and antigens binding affinity. […] The glyco-specificity of monoclonal anti-BTN1A1 antibodies was also characterized by FACS analysis. […] After washing, fluorescence intensity (MFI) was measured to assess relative binding of antibodies to membrane bound glycosylated or unglycosylated BTN1A1.

[3] = molecular target: T1, human BTN1A1 extracellular domain …; assay: BLI (Octet), antibody loaded on sensor, single analyte concentration, 1:1 fit
Procedure: (§3) The KD value of STC810 was also determined in an octet assay. […] Baseline was established in PBS containing 1 mg/ml bovine serum albumin (assay buffer), the association step was performed by submerging the sensors in a single concentration of analyte in assay buffer. Dissociation was performed and monitored in fresh assay buffer. All experiments were performed with sensor shaking at 1,000 rpm. ForteBio's data analysis software was used to fit the data to a 1:1 binding model to extract an association rate and dissociation rate. The KD value was calculated using the ratio kd/ka. In a typical epitope binning assay, antigen BTN1A1-Fc (10 nM) was preincubated with the second antibody (10 nM) for 1 h at room temperature. Control antibody (20 nM) was loaded onto AMC sensors (ForteBio) and remaining Fc-binding sites on the sensor were blocked with a whole mouse IgG antibody (Jackson ImmunoResearch). The sensors were exposed to preinculated antigen-second antibody mixture. Raw data was processed using ForteBio's Data Analysis Software 7.0 and the antibody pairs were assessed for competitive binding. Additional binding by the second antibody indicates an unoccupied epitope (non-competitor), while no binding indicates epitope blocking (competitor).

[4] = molecular target: T1, human BTN1A1 extracellular domain …; assay: BLI (Octet), antibody loaded on sensor, single analyte concentration, 1:1 fit; column headed 'kd (1/Ms)'
Procedure: as §3

[5] = molecular target: T3, human BTN1A1 extracellular domain tagged with 6xHis (human, UniProt Q13410 27-242, N-glycosylated (removed by PNGase F in the deglycosylated control)); assay: SPR (Biacore), STC810 captured on Protein A chip, BTN1A1-ECD-His injected; column headed 'kd (1/Ms)'
T3 construct: also called hBTN1A1-His; BTN1A1-His
T3 chain: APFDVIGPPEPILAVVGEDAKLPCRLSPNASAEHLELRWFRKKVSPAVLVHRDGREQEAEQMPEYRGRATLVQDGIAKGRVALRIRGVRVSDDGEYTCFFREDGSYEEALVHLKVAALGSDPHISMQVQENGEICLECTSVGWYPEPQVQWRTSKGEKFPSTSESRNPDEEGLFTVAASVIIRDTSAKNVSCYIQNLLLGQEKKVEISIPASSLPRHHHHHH
Procedure: as §1, §2

[6] = molecular target: T1, human BTN1A1 extracellular domain …; assay: SPR (Biacore), STC810 captured on Protein A chip, BTN1A1-ECD-Fc injected
Procedure: as §1, §2

[7] = molecular target: T1, human BTN1A1 extracellular domain …; assay: BLI (Octet), antibody loaded on sensor, single analyte concentration, 1:1 fit; column headed 'ka (1/s)'
Procedure: as §3

[8] = molecular target: T1, human BTN1A1 extracellular domain …; assay: SPR (Biacore), STC810 captured on Protein A chip, BTN1A1-ECD-Fc injected; column headed 'ka (1/s)'
Procedure: as §1, §2

[9] = molecular target: T4, wild-type human BTN1A1 expressed in HEK293T cells (human, UniProt Q13410 27-526, fully glycosylated, as the filing says); assay: FACS on 293T cells overexpressing BTN1A1 WT or 2NQ, FITC secondary antibody
T4 construct: in whole-cell lysates in the Western blot; also called BTN1A1 WT; human BTN1A1 WT; not shown: C-terminal flag tag
T4 sequence: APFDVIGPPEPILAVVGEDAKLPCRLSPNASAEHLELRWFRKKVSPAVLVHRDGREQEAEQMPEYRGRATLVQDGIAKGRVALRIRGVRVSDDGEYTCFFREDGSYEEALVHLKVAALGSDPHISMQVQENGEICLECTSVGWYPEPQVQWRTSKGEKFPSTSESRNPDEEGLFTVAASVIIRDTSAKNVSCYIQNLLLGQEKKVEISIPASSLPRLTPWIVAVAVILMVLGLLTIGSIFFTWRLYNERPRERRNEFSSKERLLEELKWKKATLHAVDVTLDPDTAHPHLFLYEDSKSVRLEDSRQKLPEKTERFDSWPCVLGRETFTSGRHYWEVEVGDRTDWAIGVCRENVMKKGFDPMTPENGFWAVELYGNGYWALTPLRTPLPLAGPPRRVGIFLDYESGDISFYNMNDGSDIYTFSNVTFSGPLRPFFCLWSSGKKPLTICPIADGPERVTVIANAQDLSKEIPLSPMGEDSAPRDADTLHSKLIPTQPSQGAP
Procedure: FIG. 10—FACS analysis of mouse anti-human BTN1A1 monoclonal antibodies. Human BTN1A1-2NQ (i.e. N55Q and N215Q) and human BTN1A1 WT were expressed in HEK293T cells by transient transfection. The surface expression of hBTN1A1 was measured by FACS analysis with anti-BTN1A1 monoclonal antibodies designated as STC702, STC810, STC819, STC820, STC821, STC822, STC838, and STC839. Anti-BTN1A1 polyclonal antibodies were used as a positive control.
The glyco-specificity of monoclonal anti-BTN1A1 antibodies was characterized by dot blot analysis. Each anti-BTN1A1 mAb (0.5 μg/well loaded) was tested for binding to glycosylated BTN1A1 (PNGaseF “−”) or deglycosylated BTN1A1 (PNGaseF “+”). Non-specific antibody controls (“IgG,” 0.25 μg/well loaded) was also included in the assay. As shown in FIGS. 9A-9B, both glycosylated BTN1A1 protein and non-glycosylated BTN1A1 (BTN1A1 protein treated with PNGase F) were coated on the solid phase and tested for mAbs and antigens binding affinity. […] The glyco-specificity of monoclonal anti-BTN1A1 antibodies was also characterized by FACS analysis. […] After washing, fluorescence intensity (MFI) was measured to assess relative binding of antibodies to membrane bound glycosylated or unglycosylated BTN1A1. […]

[10] = molecular target: T3, human BTN1A1 extracellular domain …; assay: SPR (Biacore), STC810 captured on Protein A chip, BTN1A1-ECD-His injected
Procedure: as §1, §2

[11] = molecular target: T3, human BTN1A1 extracellular domain …; assay: SPR (Biacore), STC810 captured on Protein A chip, BTN1A1-ECD-His injected; column headed 'ka (1/s)'
Procedure: as §1, §2

[12] = molecular target: T5, hBTN1A1 overexpressed in PC3 prostate cancer cells (human, UniProt Q13410 27-526); assay: cell-based or functional assay
T5 sequence: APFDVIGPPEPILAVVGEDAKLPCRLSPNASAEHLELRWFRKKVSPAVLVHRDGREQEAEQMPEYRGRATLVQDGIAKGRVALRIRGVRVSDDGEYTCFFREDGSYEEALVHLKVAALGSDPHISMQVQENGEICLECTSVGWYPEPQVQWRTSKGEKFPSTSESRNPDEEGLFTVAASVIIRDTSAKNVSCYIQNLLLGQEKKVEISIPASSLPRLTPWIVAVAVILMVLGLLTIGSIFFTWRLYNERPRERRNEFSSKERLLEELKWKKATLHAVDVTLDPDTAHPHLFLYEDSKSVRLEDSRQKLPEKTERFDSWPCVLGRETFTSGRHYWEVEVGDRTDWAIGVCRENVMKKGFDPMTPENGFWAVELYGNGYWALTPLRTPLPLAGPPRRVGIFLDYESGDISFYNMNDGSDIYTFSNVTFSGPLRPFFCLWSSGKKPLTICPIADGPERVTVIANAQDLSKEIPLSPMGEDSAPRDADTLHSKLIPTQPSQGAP

kon [1]: 98900 M⁻¹ s⁻¹ | binding result [2]: no binding (tested: 0.5 µg/well) | Kd [3]: 2.12 nM | kon [4]: 145000 M⁻¹ s⁻¹ | kon [5]: 269000 M⁻¹ s⁻¹ | Kd [6]: 1.81 nM | koff [7]: 0.000309 s⁻¹ | koff [8]: 0.00018 s⁻¹ | fold MFI on glycosylated BTN1A1 (WT) over unglycosylated BTN1A1 (2NQ) [9]: 5 fold | Kd [10]: 14.9 nM | koff [11]: 0.00402 s⁻¹ | relative apoptosis of PC3 cells at 120 h (caspase 3/7), with activated T cells, 50 µg/ml STC810 [12]: 2 fold
B1: mouse monoclonal anti-human BTN1A1 antibody STC810 (antibody, V domains shown)
VH: EVQLQQSGPELVKPGASVKISCKASGYTFTHYNMDWVKQSHGKSLEWIGYIYPSNGGTGYNQKFKSRATLTVDKSSSTAYMELHSLTSEDSAVYYCARGAYHYGSSYAYWYFDVWGAGTTVTVSS
VL: DIQMTQTTSSLSASLGDRVTISCSASQDISNYLNWYQQKPDETVKLLISYTSSLHSGVPSRFSGSGSGTDYSLTISNLAPEDIATYYCQQSSKLPFTFGSGTELEIKR
notes: also called STC838; STC810 MAb
